Experimental data reported in publication PMC7614784, “Structure and function of the RAD51B-RAD51C-RAD51D-XRCC2 tumour suppressor” (Nature, 2023).

Legend:
BCDX2(AF647) = target: T1, BCDX2(AF647) (Homo sapiens, UniProt O15315;O43502;O75771;O43543 1-345;1-376;1-328;1-280); experiment: bulk FRET; high FRET; XRCC2 near 5' end; FA: protein in 25 mM HEPES pH 7.5, 10% glycerol, 2.5 mM MgCl2, 0.25 mM TCEP, 150 mM NaCl mixed 1:1 with oligo in HMT buffer, 50 mM NaCl (final ~100 mM NaCl, 5%); details: protein: recombinant; copies: 1;1;1;1; label: 5'-Cy3
T1 sequence 1: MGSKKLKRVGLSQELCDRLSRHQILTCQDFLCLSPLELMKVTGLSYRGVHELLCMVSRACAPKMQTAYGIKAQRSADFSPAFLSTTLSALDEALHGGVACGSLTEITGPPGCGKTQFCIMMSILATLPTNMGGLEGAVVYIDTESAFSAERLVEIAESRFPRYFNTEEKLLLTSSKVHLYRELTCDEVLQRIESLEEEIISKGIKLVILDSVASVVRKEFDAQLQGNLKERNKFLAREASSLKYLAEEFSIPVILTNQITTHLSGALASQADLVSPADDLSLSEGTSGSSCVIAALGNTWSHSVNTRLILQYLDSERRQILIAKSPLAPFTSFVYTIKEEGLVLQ
T1 sequence 2: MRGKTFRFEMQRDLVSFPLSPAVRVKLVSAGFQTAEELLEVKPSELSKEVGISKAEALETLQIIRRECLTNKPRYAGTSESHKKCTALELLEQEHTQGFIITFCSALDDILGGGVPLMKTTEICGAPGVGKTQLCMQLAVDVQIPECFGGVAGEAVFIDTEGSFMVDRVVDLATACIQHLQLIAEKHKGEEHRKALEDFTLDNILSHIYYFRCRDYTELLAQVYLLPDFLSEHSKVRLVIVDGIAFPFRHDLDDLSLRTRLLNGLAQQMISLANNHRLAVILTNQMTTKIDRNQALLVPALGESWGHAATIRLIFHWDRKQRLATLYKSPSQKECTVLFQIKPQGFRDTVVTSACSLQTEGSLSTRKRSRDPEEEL
T1 sequence 3: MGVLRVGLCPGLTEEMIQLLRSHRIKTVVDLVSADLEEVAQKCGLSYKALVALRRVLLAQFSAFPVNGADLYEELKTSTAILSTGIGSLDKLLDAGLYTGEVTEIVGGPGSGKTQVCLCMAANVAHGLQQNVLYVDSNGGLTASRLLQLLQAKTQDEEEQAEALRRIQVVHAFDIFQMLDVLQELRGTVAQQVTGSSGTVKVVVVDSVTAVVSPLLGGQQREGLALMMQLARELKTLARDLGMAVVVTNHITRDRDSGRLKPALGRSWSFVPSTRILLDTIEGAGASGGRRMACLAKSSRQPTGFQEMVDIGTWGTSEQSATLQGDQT
T1 sequence 4: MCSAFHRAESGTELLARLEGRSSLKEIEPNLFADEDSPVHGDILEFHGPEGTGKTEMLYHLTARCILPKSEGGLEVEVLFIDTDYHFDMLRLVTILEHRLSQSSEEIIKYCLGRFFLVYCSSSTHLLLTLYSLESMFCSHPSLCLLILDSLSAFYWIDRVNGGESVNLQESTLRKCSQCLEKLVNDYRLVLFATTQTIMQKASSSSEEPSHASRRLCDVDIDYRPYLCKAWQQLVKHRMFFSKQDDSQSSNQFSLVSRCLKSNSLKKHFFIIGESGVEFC

B(AF647)CDX2 = target: T2, B(AF647)CDX2 (Homo sapiens, UniProt O15315;O43502;O75771;O43543 1-345+=GGGSGGGDSLEFIASKLA;1-376;1-328;1-280, internal_change); experiment: bulk FRET; high FRET; RAD51B near 3' end; FA: protein in 25 mM HEPES pH 7.5, 10% glycerol, 2.5 mM MgCl2, 0.25 mM TCEP, 150 mM NaCl mixed 1:1 with oligo in HMT buffer, 50 mM NaCl (final ~100 mM NaCl, 5%); details: protein: recombinant; TwinStrep-TEV on XRCC2 not cleaved; copies: 1;1;1;1; label: 3'-Cy3
T2 sequence 1: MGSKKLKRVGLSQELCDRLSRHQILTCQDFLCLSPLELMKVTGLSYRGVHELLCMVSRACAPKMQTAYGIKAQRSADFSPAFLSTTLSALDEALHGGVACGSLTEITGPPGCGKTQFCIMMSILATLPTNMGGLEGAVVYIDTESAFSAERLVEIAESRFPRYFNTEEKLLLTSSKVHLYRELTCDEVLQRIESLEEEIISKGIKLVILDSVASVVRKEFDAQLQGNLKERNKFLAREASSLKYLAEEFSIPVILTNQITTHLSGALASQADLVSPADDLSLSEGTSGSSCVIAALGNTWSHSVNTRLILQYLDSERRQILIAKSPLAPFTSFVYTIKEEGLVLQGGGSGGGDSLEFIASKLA
T2 sequence 2: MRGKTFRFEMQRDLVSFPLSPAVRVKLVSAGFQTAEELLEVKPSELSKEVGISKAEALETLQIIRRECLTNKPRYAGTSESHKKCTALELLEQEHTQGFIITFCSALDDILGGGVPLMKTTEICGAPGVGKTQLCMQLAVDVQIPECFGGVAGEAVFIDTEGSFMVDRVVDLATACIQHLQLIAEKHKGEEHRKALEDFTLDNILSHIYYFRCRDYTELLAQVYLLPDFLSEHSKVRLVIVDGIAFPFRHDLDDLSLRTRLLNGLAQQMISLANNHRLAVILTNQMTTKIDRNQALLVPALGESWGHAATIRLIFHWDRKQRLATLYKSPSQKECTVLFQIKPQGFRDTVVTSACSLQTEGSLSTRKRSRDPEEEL
T2 sequence 3: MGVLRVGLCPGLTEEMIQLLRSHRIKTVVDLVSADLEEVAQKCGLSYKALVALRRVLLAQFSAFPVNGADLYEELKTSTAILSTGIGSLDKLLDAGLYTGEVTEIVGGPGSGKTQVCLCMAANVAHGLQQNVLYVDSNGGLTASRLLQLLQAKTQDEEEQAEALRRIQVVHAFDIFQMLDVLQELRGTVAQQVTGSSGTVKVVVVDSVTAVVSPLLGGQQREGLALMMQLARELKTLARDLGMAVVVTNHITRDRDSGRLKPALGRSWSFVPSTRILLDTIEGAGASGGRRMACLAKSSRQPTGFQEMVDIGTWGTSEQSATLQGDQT
T2 sequence 4: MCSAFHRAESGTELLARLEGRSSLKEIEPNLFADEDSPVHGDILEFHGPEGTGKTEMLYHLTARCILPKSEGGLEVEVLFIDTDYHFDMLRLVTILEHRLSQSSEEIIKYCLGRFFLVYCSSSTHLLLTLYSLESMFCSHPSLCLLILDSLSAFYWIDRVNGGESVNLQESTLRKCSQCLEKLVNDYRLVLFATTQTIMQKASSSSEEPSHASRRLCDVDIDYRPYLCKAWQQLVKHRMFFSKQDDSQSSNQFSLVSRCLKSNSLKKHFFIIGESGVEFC

Does TATCGAATCCGTCTA (ssDNA) [5'-Cy3-dN15nt] bind (BCDX2(AF647))?
Result: binds

Does TATCGAATCCGTCTA (ssDNA) [dN15nt-Cy3-3'] bind (B(AF647)CDX2)?
Result: binds
